# According to the supplement of paper PMC7125110:
# ± gives the standard error. Variants at the floor of the assay were thinned out.
# B1: glmS ribozyme (parent)
# chain: AUAAAAGCGCCAGAACUACAGAAAUGUAGUUGACGAGGAGGAGGUUUAUCGAAUUUUCGGCGGAUGCCUCCAAA
# Variants of: B1
# Experiment: self-cleavage kobs at 2500 uM GlcN6P; higher = faster cleavage; RNA array
# Conditions: with glucosamine-6-phosphate
# How it was run: (§1)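 Barcoded ribozyme variants, transcribed in situ by E. coli RNA polymerase on sequenced MiSeq chips, were followed via a hybridised Cy3 probe at 37 °C. Glucosamine-6-phosphate ranged from 40 μM to 10 mM in HEPES/KCl/Mg(OAc)2 buffer. kobs came from decay fits to per-tile medians, and kcat and KM from weighted Michaelis–Menten fits.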
row,Variant,self-cleavage kobs at 2500 uM GlcN6P
1,U49C C68U,< 1e-05 s⁻¹
2,U46G G59U G60U,< 1e-05 s⁻¹
3,U47A G62C C68G C71G,0.000178 ± 4.9e-05 s⁻¹
4,U46A U56A C67G,0.000143 ± 6.8e-05 s⁻¹
5,G40U C50A U56A C67G C71U,< 1e-05 s⁻¹
6,G38A A42C U56G,< 1e-05 s⁻¹
7,A39G A48C C71G,4.19e-05 ± 1.9e-05 s⁻¹
8,G40U A42U G43A C71A,< 1e-05 s⁻¹
9,U49G U54G C68G,6.25e-05 ± 2.4e-05 s⁻¹
10,A39U A64C C70G,< 1e-05 s⁻¹
11,A42C C58A G60U,< 1e-05 s⁻¹
12,A48C C67G,2.91e-05 ± 1e-05 s⁻¹
13,C50A U55G C67G,9.38e-05 ± 3.7e-05 s⁻¹
14,U45C U47G,0.000218 ± 9.6e-05 s⁻¹
15,A48C U49A U55C,< 1e-05 s⁻¹
16,G38U A48G U55C C67G,< 1e-05 s⁻¹
17,A48G C50A U69G,0.000106 ± 3e-05 s⁻¹
18,A42U A48G A52G C58G,< 1e-05 s⁻¹
19,G38C U49G U55A U65G,< 1e-05 s⁻¹
20,G37U A39U G43U C67G,< 1e-05 s⁻¹
21,G40C G43A A48U A64C U69A,< 1e-05 s⁻¹
22,C50U G51C A53U,< 1e-05 s⁻¹
23,G43C U46G A52G U54G G60A,< 1e-05 s⁻¹
24,G43C U46G C58A,< 1e-05 s⁻¹
25,G40U A64G C71A,0.00288 ± 0.0008 s⁻¹
26,G40A C61G G66C C67A,< 1e-05 s⁻¹
27,G51C G63A C68A,< 1e-05 s⁻¹
28,G40C C70G C71U,7.87e-05 ± 1.6e-05 s⁻¹

row,Variant,self-cleavage kobs at 2500 uM GlcN6P
1,C50G G60U C61G U65A,9.15e-05 ± 3e-05 s⁻¹
2,A42U U45G A53C,0.000111 ± 2.6e-05 s⁻¹
3,U57A C61G C70G,3.93e-05 ± 1.9e-05 s⁻¹
4,G37U U45G U65G,< 1e-05 s⁻¹
5,U46A A52G G62U C70U,< 1e-05 s⁻¹
6,A39U U46G U56G,0.000873 ± 0.00027 s⁻¹
7,A53U U54G U55A C71U,0.00523 ± 0.0019 s⁻¹
8,U45C C61U C70G,< 1e-05 s⁻¹
9,A39G G40U U56A,0.000452 ± 0.00011 s⁻¹
10,G43C G51C U65A,< 1e-05 s⁻¹
11,G37U G44C U57C C67A,< 1e-05 s⁻¹
12,C50G C68G C70U,7.27e-05 ± 1.1e-05 s⁻¹
13,G59U U65A C68U,< 1e-05 s⁻¹
14,U46A A48U G51C,< 1e-05 s⁻¹
15,A53G C58U,1.96e-05 ± 7.8e-06 s⁻¹
16,C58U A64U C67G,< 1e-05 s⁻¹
17,A42U C50G G51C U69G C71G,< 1e-05 s⁻¹
18,G38A A53G G63U,< 1e-05 s⁻¹
19,A39G A52U C58A,< 1e-05 s⁻¹
20,G43C U45A C68G,0.00405 ± 0.0014 s⁻¹
21,G37U A48C A53G,< 1e-05 s⁻¹
22,G40U A48G C68U,< 1e-05 s⁻¹
23,G43C C67A U69G,0.000151 ± 6e-05 s⁻¹
24,U46G U47A C71A,0.00116 ± 0.00028 s⁻¹
25,A39U G41U C50G,< 1e-05 s⁻¹
26,C61U G63C C71U,< 1e-05 s⁻¹
27,G38A C50G U57C,0.000163 ± 6.6e-05 s⁻¹

# Variants of: B1
# Experiment: self-cleavage kobs at 10000 uM GlcN6P; higher = faster cleavage; RNA array
# Conditions: with glucosamine-6-phosphate
# How it was run: as §1
row,Variant,self-cleavage kobs at 10000 uM GlcN6P
1,C10A A15C C16U G40A G44A C61G,< 1e-05 s⁻¹
2,U46A U56A C67G,0.000316 ± 7.6e-05 s⁻¹
3,G7C G9U G41A C50U C71G,< 1e-05 s⁻¹
4,G9U G59C G63C,< 1e-05 s⁻¹
5,A6C G32A G43U,< 1e-05 s⁻¹
6,G7A A64G C67U C70G,< 1e-05 s⁻¹
7,G9C A36C G43A U47A,< 1e-05 s⁻¹
8,A48C C67G,2e-05 ± 7.5e-06 s⁻¹
9,G7U C16A G62A,< 1e-05 s⁻¹
10,A6C U56A C68G,< 1e-05 s⁻¹
11,A6U U54C C71U,0.000136 ± 2.2e-05 s⁻¹
12,C8G C50G C70G,0.000104 ± 2.2e-05 s⁻¹
13,C10A G63U C71U,< 1e-05 s⁻¹
14,G7A A33G C68U C70G,5.57e-05 ± 2e-05 s⁻¹
15,G7C C11A G13A,< 1e-05 s⁻¹
16,C8A G40C G59A G63A,< 1e-05 s⁻¹

row,Variant,self-cleavage kobs at 10000 uM GlcN6P
1,C8A C11G A48U C67G C71A,< 1e-05 s⁻¹
2,C10G C61A G66U,< 1e-05 s⁻¹
3,A39G G40U U56A,0.00056 ± 0.00013 s⁻¹
4,A6G C11A C34U C58U C68G,0.000295 ± 0.0001 s⁻¹
5,A6G U30G C68G,< 1e-05 s⁻¹
6,C10G C34G A36G G44A U45G U57C C61A C70A,< 1e-05 s⁻¹
7,A5U A33C,0.000263 ± 6.3e-05 s⁻¹
8,A53G C58U,0.000105 ± 9.8e-06 s⁻¹
9,C10A U45A A52U,< 1e-05 s⁻¹
10,G9U U31G C34U G59U,< 1e-05 s⁻¹
11,A6C C16U G38U U49G G51U G59C U65A,< 1e-05 s⁻¹
12,C8U G13U A15U C16U G32C A48U,< 1e-05 s⁻¹
13,G7A G29U G37C,< 1e-05 s⁻¹
14,G9A A12G A36C G38C,< 1e-05 s⁻¹
15,G7A A12C G51U,< 1e-05 s⁻¹
